Experimental findings from patent US20250382373A1 (BIOCYTOGEN PHARMACEUTICALS BEIJING, published 2025) are described below.

Like-named read-outs stand apart in the source and are kept apart here.

Experiment [1] addresses T1, His-tagged human EGFR protein (human, UniProt P00533 25-645).
T1 construct: Bought protein; also called hEGFR-His; not shown: His tag
As to the kind of experiment: SPR (Biacore 8K), Protein A chip. In general terms: SPR reads the build-up and loss of mass on a sensor chip optically.

Experiment [2] has as its target T2, His-tagged monkey EGFR protein (monkey (crab-eating macaque; Macaca …, UniProt A0A2K5WK39 25-645).
T2 construct: also called fasEGFR-His; not shown: His tag
As to the kind of experiment: SPR (Biacore 8K), Protein A chip.

In experiment [3] the target is T3, His-tagged human MET protein (human, UniProt P08581 25-932).
T3 construct: Bought protein; also called hMET-His; not shown: His tag
T3 sequence (P08581 25-932 limits assumed): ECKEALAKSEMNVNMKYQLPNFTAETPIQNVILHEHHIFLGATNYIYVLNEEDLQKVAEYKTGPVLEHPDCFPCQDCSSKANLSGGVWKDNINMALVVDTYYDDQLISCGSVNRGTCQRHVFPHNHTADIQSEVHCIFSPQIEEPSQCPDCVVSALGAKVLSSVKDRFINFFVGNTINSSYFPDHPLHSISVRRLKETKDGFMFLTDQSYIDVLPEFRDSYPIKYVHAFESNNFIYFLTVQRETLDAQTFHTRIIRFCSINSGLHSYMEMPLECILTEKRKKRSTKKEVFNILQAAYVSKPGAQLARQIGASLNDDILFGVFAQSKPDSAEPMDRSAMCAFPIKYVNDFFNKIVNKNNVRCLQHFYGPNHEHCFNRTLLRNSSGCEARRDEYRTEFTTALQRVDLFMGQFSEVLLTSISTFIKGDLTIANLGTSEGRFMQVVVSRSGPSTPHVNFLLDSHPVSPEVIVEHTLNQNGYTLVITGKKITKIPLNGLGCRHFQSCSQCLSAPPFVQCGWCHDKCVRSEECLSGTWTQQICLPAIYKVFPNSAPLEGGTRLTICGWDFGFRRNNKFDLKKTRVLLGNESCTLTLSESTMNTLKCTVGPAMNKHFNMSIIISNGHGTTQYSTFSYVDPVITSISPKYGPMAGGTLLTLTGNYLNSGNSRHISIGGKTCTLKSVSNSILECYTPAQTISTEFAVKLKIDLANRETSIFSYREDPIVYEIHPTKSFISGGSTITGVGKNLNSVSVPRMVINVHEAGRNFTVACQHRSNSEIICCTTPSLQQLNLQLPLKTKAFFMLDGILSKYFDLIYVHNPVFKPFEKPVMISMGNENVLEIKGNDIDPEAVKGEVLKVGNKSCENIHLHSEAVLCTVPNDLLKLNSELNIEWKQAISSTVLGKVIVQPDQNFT
The experiment is described as follows: SPR (Biacore 8K), Protein A chip.

Experiment [4] has as its target T4, human EGFR on CHO-S-hEGFR cells (human, UniProt P00533 25-645). As to the kind of experiment: flow cytometry on CHO-S-hEGFR cells.
The target in experiment [5] is T5, monkey EGFR on CHO-S-fasEGFR cells (monkey (crab-eating macaque; Macaca …, UniProt P55245 25-645). The experiment is described as follows: flow cytometry on CHO-S-fasEGFR cells.
Experiment [6] deals with T1, His-tagged human EGFR protein. As to the kind of experiment: SPR (Biacore 8K), antibody on Protein A chip.
In experiment [7] the target is T2, His-tagged monkey EGFR protein. As to the kind of experiment: SPR (Biacore 8K), antibody on Protein A chip.
For experiment [8], the target named is T4, human EGFR on CHO-S-hEGFR cells. As to the kind of experiment: flow cytometry on CHO-S-hEGFR cells. The source holds these as a separate data set. (A flow cytometer gives signals particle by particle.)
Experiment [9] deals with T5, monkey EGFR on CHO-S-fasEGFR cells. As to the kind of experiment: flow cytometry on CHO-S-fasEGFR cells. This is another data set of the same source.
Experiment [10] concerns the target T1, His-tagged human EGFR protein. As to the kind of experiment: SPR (Biacore 8K), antibody on Protein A chip. The source holds these as a separate data set.
Experiment [11] addresses T2, His-tagged monkey EGFR protein. The experiment is described as follows: SPR (Biacore 8K), antibody on Protein A chip. This is another data set of the same source.
For experiment [12], the target named is human MET on hMET-NIH3T3 cells (human, UniProt P08581 25-1390). As to the kind of experiment: flow cytometry on hMET-NIH3T3 cells.
Chain of human MET on hMET-NIH3T3 cells (P08581 25-1390 limits assumed): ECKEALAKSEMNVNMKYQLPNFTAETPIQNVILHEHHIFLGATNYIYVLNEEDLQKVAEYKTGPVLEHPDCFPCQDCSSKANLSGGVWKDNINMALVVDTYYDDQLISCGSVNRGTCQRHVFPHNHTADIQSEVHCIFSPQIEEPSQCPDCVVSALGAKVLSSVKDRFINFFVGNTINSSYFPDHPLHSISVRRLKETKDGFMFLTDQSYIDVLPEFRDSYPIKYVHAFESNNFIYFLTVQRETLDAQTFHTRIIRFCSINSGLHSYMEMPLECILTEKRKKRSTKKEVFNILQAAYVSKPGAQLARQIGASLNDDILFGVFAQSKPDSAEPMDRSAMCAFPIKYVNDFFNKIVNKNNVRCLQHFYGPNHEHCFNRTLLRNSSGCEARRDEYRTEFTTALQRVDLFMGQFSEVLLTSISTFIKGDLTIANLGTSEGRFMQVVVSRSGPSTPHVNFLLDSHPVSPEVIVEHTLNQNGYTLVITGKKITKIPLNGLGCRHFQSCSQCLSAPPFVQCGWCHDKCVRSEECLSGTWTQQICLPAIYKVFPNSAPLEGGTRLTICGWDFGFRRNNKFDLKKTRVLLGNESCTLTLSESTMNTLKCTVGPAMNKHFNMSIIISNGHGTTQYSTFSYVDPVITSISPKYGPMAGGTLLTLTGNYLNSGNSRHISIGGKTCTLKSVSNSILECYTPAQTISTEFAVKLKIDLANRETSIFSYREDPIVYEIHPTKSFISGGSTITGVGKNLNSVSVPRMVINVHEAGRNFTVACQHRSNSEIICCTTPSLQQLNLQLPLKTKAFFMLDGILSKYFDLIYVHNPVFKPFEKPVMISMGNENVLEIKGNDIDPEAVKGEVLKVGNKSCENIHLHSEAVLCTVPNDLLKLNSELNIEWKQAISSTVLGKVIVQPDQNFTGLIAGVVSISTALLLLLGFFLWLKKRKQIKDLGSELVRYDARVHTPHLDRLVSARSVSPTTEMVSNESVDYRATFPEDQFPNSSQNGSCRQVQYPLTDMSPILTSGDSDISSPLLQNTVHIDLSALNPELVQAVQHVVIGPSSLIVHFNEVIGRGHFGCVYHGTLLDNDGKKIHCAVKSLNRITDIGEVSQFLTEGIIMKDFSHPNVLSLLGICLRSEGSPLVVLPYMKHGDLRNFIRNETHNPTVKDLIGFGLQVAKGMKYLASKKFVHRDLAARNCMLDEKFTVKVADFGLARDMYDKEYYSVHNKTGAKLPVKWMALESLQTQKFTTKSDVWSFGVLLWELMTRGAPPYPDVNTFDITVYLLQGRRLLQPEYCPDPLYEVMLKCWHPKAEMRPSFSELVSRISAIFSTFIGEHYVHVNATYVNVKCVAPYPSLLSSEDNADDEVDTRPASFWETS
For experiment [13], the target named is monkey MET on fasMET-NIH3T3 cells (monkey (Macaca fascicularis)). As to the kind of experiment: flow cytometry on fasMET-NIH3T3 cells.
Chain of monkey MET on fasMET-NIH3T3 cells (monkey (Macaca fascicularis)) (chain, as listed by the source limits assumed): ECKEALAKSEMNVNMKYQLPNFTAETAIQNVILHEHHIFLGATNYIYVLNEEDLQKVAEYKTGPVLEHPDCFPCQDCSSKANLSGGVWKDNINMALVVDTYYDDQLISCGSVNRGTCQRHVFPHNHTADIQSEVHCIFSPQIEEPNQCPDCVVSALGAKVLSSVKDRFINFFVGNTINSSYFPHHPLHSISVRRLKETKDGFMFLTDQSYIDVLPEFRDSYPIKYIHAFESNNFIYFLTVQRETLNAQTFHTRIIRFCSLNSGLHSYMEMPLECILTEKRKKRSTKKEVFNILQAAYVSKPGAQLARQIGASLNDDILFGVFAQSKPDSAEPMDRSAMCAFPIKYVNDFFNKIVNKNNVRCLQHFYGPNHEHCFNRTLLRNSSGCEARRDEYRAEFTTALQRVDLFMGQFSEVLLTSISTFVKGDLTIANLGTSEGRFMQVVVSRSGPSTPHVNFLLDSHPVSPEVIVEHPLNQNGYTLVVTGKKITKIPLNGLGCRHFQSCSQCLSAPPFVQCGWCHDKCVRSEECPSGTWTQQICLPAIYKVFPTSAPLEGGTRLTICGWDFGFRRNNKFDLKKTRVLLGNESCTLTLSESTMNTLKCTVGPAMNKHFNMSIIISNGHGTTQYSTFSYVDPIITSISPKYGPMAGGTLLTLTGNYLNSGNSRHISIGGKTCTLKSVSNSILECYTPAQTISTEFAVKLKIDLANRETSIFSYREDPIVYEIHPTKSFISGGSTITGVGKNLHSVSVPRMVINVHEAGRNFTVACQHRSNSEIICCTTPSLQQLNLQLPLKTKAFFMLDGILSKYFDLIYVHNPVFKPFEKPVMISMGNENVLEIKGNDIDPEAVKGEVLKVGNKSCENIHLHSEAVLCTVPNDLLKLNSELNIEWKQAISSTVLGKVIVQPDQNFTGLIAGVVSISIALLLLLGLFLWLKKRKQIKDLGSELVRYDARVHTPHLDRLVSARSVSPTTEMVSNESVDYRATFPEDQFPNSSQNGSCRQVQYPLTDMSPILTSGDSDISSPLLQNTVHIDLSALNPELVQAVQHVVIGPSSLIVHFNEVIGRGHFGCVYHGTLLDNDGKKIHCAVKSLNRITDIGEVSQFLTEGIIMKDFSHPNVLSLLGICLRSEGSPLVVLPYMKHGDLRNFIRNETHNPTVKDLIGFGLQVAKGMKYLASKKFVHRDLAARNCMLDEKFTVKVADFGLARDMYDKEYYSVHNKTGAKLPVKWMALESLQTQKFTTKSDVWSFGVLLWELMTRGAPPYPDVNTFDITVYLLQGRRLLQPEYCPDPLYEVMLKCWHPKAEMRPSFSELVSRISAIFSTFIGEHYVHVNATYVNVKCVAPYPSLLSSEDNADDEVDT
Experiment [14] deals with T3, His-tagged human MET protein. The experiment is described as follows: SPR (Biacore 8K), antibody on Protein A chip.

B1: E-2B7 (antibody, V domains shown)
VH: EVQLQQWGPGLVKPSQTLSLTCTVSGGSINSGDYYWSWIRQPPGKGLEWIGYIYYSGSTYYNPSLKSRVTISLDTSKNQLSLKLSSVTAADTAVYYCARNNDFGDYLYFDNWGQGTLVTVSS
VL: not shown
For orientation: Kd means a measure of binding affinity in units of concentration. Usually koff stands for the rate constant with which the complex falls apart. As usually defined, the kon is the second-order rate constant of association. Take B1: the Kd in experiment [1] came to 4.22 nM; in [2], 6.49 nM; in experiment [6], 4.69 nM; in [7] it was 5.32 nM. In addition, the koff in [1] was determined as 0.000301 s⁻¹; in experiment [2], 0.000296 s⁻¹; in experiment [6], 0.000286 s⁻¹; in experiment [7], 0.000342 s⁻¹. Also, the kon amounted to 71500 M⁻¹ s⁻¹ in [1], 45600 M⁻¹ s⁻¹ in experiment [2], 61000 M⁻¹ s⁻¹ in [6] and 64300 M⁻¹ s⁻¹ in experiment [7]. Further, the binding result in experiment [3] is listed as “no binding (tested: antigen up to 400 nM)”. For the same molecule, the figures for the “Percentage of Positive Cells” value in [4] and in [5] were 26.1% and 28.6%, respectively.

B2: E-2B7-M-2F11 (bispecific antibody)
VH 1: EVQLQQWGPGLVKPSQTLSLTCTVSGGSINSGDYYWSWIRQPPGKGLEWIGYIYYSGSTYYNPSLKSRVTISLDTSKNQLSLKLSSVTAADTAVYYCARNNDFGDYLYFDNWGQGTLVTVSS
VH 2: EVQLVESGPGLVKPSETLSLTCTVSGGSISSNYWSWIRQPPGKGLEWIGYIYHSGSTNYNPSLKSRVTISVDTSKNQFSLKLSSVTAADTAVYFCARGPVSIFGVVKYIDLWGRGTLVTVSS
light: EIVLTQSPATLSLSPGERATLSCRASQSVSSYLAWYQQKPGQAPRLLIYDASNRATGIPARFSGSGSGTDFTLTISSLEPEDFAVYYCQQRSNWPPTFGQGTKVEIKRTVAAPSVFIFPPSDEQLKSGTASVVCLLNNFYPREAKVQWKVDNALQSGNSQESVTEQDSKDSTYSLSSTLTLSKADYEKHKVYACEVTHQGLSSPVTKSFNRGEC
notes: 1+1 IgG1 bispecific with knobs-into-holes and a common light chain: first VH is the EGFR arm (E-2B7), second VH the MET arm (M-2F11); also called anti-EGFR/MET bispecific antibody E-2B7-M-2F11
As to B2, the Kd in [1] worked out at 6.82 nM; in experiment [2], 11.8 nM; in experiment [3], 28.1 nM. Further, the koff came to 0.000503 s⁻¹ in experiment [1], 0.000522 s⁻¹ in experiment [2] and 0.00109 s⁻¹ in experiment [3]. The kon in experiment [1] came to 73800 M⁻¹ s⁻¹; in [2], 44300 M⁻¹ s⁻¹; in [3], 38700 M⁻¹ s⁻¹.

B3: E-9A6 (antibody, V domains shown)
VH: EVQLQQSGPGLVKPSQTLSLTCTVSGGSISSGDYYWNWIRQPPGKGLEWIGYIYYSGSTYYNPSLKSRVTISVDTSKNQFSLKLSSVTAADTAVYYCAREGVYTIMVDYWGQGTLVTVSS
VL: not shown
Consider B3, for which the “Percentage of Positive Cells” value in [8] stood at 56.9%. In addition, the “Percentage of Positive Cells” value in experiment [9] is 55.4%. In experiment [10], this molecule had a Kd of 9.44 nM, a koff of 0.00176 s⁻¹ and a kon of 186000 M⁻¹ s⁻¹. In experiment [11], this molecule yielded a Kd of 12.6 nM, a koff of 0.00173 s⁻¹ and a kon of 138000 M⁻¹ s⁻¹.

B4: E-9H2 (antibody, V domains shown)
VH: EVQLVESGPGLVKPSQTLSLTCTVSGDSISSGDYYWSWIRQPPGKGLEWIGYIYYSGSTYYNPSLKSRVIISLDTSKNQFSLKLISVTAADTAVYYCARVGVYSTSRDYWGQGTLVTVSS
VL: not shown
On to B4, for which the “Percentage of Positive Cells” value in [8] worked out at 44.3%. Besides, the “Percentage of Positive Cells” value in experiment [9] was found to be 41.5%. In [10], this molecule showed a Kd of 98.3 nM, a koff of 0.0151 s⁻¹ and a kon of 154000 M⁻¹ s⁻¹. Moreover, in [11], the affinity, expressed as Kd, was 152 nM; the koff was found to be 0.0177 s⁻¹; the kon stood at 117000 M⁻¹ s⁻¹.

B5: E-9D2 (antibody, V domains shown)
VH: EVQLQESGPGLVKPSQTLSLTCTVSGGSISSGDYYWSWIRQPPGKGLEWIGYIYYSGSTYYNPSLKSRVTISVDTSKNQFSLRLSSVTAADTAVYYCARDLVYYYALDVWGQGTTVTVSS
VL: not shown
As for B5, the “Percentage of Positive Cells” value in experiment [8] stood at 38.7%. Moreover, the “Percentage of Positive Cells” value in experiment [9] came out at 45.9%. In experiment [10], this molecule showed a Kd of 60.3 nM, a koff of 0.0152 s⁻¹ and a kon of 252000 M⁻¹ s⁻¹. In experiment [11], this molecule registered a Kd of 99.8 nM, a koff of 0.0203 s⁻¹ and a kon of 203000 M⁻¹ s⁻¹.

B6: E-6C4 (antibody, V domains shown)
VH: QVQLQQWGPGLVKPSQTLSLTCTVSGGSINSGDYYWSWIRQPPGKGLESIGYIYYSGSTYYNPSLKSRVTISADTSKNQFSLKLTSVTAADTAVYYCARERVYSSSLDYWGQGTLVTVSS
VL: not shown
With B6, the Kd in experiment [2] amounted to 158 nM; in [7], 90.3 nM. Also, the binding result in [3] is recorded as “no binding (tested: antigen up to 400 nM)”. Besides, the “Percentage of Positive Cells” value in [4] was found to be 26.4%; in experiment [5], 25.4%.

B7: M-8D9 (antibody, V domains shown)
VH: QVQLQESGPGLVKPSETLSLTCTVSGGSISGHYWSWIRQSPGKGLEWIGYITYSGSTNYNPSLKSRVTISVDTSKNQFSLKLSSVTAADTAVYYCGTIAVAGRVYYYGVDVWGRGTTVTVSS
VL: not shown
On to B7, for which the “Percentage of Positive Cells” value in [12] was found to be 99.8%. Further, the “Percentage of Positive Cells” value in [13] was 65.3%. For the same molecule, in [14], the Kd is 18.6 nM, the koff amounted to 0.000505 s⁻¹ and the kon stood at 27100 M⁻¹ s⁻¹.

B8: E-6C4-M-2F11 (bispecific antibody)
VH 1: QVQLQQWGPGLVKPSQTLSLTCTVSGGSINSGDYYWSWIRQPPGKGLESIGYIYYSGSTYYNPSLKSRVTISADTSKNQFSLKLTSVTAADTAVYYCARERVYSSSLDYWGQGTLVTVSS
VH 2: EVQLVESGPGLVKPSETLSLTCTVSGGSISSNYWSWIRQPPGKGLEWIGYIYHSGSTNYNPSLKSRVTISVDTSKNQFSLKLSSVTAADTAVYFCARGPVSIFGVVKYIDLWGRGTLVTVSS
light: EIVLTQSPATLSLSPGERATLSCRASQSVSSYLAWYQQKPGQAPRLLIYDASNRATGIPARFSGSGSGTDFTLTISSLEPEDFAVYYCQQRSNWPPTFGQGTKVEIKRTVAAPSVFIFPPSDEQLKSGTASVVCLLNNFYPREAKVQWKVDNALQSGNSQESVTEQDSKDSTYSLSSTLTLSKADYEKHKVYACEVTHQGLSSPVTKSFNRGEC
notes: also called anti-EGFR/MET bispecific antibody E-6C4-M-2F11
In experiment [1], B8 showed a Kd of 70.7 nM, a koff of 0.0215 s⁻¹ and an association rate constant (kon) of 304000 M⁻¹ s⁻¹. Also, in experiment [2], the Kd turned out to be 115 nM, the off-rate constant (koff) was determined as 0.0198 s⁻¹ and the kon amounted to 172000 M⁻¹ s⁻¹. In experiment [3], this molecule came in with a Kd of 50.5 nM, a koff of 0.00187 s⁻¹ and a kon of 37000 M⁻¹ s⁻¹.

B9: E-6C4-M-2G10 (bispecific antibody)
VH 1: QVQLQQWGPGLVKPSQTLSLTCTVSGGSINSGDYYWSWIRQPPGKGLESIGYIYYSGSTYYNPSLKSRVTISADTSKNQFSLKLTSVTAADTAVYYCARERVYSSSLDYWGQGTLVTVSS
VH 2: EVQLVESGGGVVQPGRSLRLSCAASGFTFNICGIHWVRQAPGKGLEWVATISHDANDKYYADSVKGRFTISRDNSKNTLYLQMNSLRAEDTAVYYCARDGNRGYDGYFDYWGQGTLVTVSS
light: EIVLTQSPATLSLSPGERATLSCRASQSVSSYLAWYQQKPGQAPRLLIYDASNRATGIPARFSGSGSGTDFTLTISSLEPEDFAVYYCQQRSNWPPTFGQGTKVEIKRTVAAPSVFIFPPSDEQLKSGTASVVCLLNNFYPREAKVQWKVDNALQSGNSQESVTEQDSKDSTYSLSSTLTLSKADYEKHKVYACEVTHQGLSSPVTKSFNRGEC
notes: also called anti-EGFR/MET bispecific antibody E-6C4-M-2G10
As for B9, the Kd came out at 53.1 nM in experiment [1], 80.9 nM in [2] and 41.7 nM in [3]. Besides, the koff in experiment [1] is 0.0174 s⁻¹; in experiment [2], 0.011 s⁻¹; in experiment [3] it was 0.00165 s⁻¹. In addition, the kon came out at 328000 M⁻¹ s⁻¹ in experiment [1], 136000 M⁻¹ s⁻¹ in experiment [2] and 39500 M⁻¹ s⁻¹ in [3].

B10: E-3A8 (antibody, V domains shown)
VH: EVQLVESGGGLVQPGGSLRLSCAVSGFIFSSYEMNWVRQAPGKGLEWVSYISSSGSTIYYADSVKGRFTISRDNAMNSLNLQMNSLRDEDTAVYYCVRVWYSSGWSGCFAYWGQGSLVTVSS
VL: not shown
For B10, the “Percentage of Positive Cells” value in experiment [4] was found to be 31.2%. In addition, the “Percentage of Positive Cells” value in experiment [5] was found to be 23.8%. In [6], this molecule showed a Kd of 23.2 nM, a koff of 0.00101 s⁻¹ and a kon of 43500 M⁻¹ s⁻¹. In experiment [7], this molecule came in with a Kd of 21.3 nM, a koff of 0.00104 s⁻¹ and an association rate constant (kon) of 48700 M⁻¹ s⁻¹.

B11: E-3D8 (antibody, V domains shown)
VH: EVQLVESGGGLVQPGGSLRLSCAASGFIFSSYEMNWVRQAPGKGLEWVSYISSSGSTIYYADSVKGRFTISRDNAKNSLYLQMNSLRADDTAIYYCARVWYSSGWSGCFAYWGQGTLVTVSS
VL: not shown
Consider B11, for which the “Percentage of Positive Cells” value in experiment [4] is 28.8%. Moreover, in experiment [5], the “Percentage of Positive Cells” value was 24.1%. In experiment [6], the affinity, expressed as Kd, was 39 nM; the dissociation rate constant (koff) turned out to be 0.00132 s⁻¹; the kon was determined as 33900 M⁻¹ s⁻¹. Besides, in experiment [7], the Kd is 34 nM, the koff is 0.00132 s⁻¹ and the kon was 38700 M⁻¹ s⁻¹.

B12: E-9F3 (antibody, V domains shown)
VH: QVQLQESGPGLVKPSQTLSLTCTVSGGSINSGDYYWSWIRQPPGKGLEWIGHIYYSGITYYNPSLKSRVTISADTSKNQFSLKLTSVTVADTAVYYCDRAGVYHDMDVWGQGTTVTVSS
VL: not shown
On to B12, for which the “Percentage of Positive Cells” value in experiment [8] came to 53.1%. Further, the “Percentage of Positive Cells” value in experiment [9] was 53.7%. In [10], this molecule registered a Kd of 27.2 nM, a koff of 0.00177 s⁻¹ and a kon of 64900 M⁻¹ s⁻¹. In addition, in [11], the Kd was 39.9 nM, the koff amounted to 0.0019 s⁻¹ and the kon amounted to 47600 M⁻¹ s⁻¹.
